# Measured values as given in patent US20260216095A1, “NANOSHEET-HYDROGEL COMPOSITES AND METHODS OF US” (Rutgers, The State University of New Jersey, priority 2023, published 2026).
# B1: GDF-5 alone: growth differentiation factor 5 (Peprotech, Catalog No. 120-01), given as saline solution (protein, UniProt P43026 382-501, looked up)
# Growth/differentiation factor …: APLATRQGKRPSKNLKARCSRKALHVNFKDMGWDDWIIAPLEYEAFHCEGLCEFPLRSHLEPTNHAVIQTLMNSMDPESTPPTCCVPTRLSPISILFIDSANNVVYKQYEDMVVESCGCR
# Test system: aggrecan (ACAN)
# Test: Rat nucleotomy model, immunohistochemistry for aggrecan
# Type: in vivo, Sprague-Dawley rats
# Conditions: six weeks
# Protocol: Animal Model Nucleotomy: In total, eight-weeks-old female Sprague-Dawley rats (220-240 g) were purchased from Orient Bio Inc., Korea, and were acclimatized for a week at a life/dark cycle of 12/12 h (temperature; 22±1° C. and relative humidity; 50%±1%) and free approach to food and water. The animal experiments were performed according to the direction approved by the Institutional Animal Care and Use Committee (IACUC) of CHA Bundang Medical Center (IACUC 200141). At the beginning of the surgery, the peritoneal site was sterilized with 70% alcohol. Afterward, rats were thoroughly anesthetized with a general anesthesia mixture of Zoletil® (50 mg/kg Virbac Laboratories, France) and Rompun® (10 mg/kg, Bayer, Korea) injected intraperitoneally. […]
# Immunohistochemistry: After six weeks of implantation, rats were euthanized via excess carbon dioxide inhalation and coccygeal discs were collected, and immunohistochemical analysis was performed for aggrecan (disc matrix component), collagen type II (a component of disc NP matrix), CGRP (pain-marker), Iba1 (pan-macrophage), CD86 (M1-macrophage) and CD163(M2-macrophage). […] The sections were mounted and finally examined using a fluorescence microscope (Zeiss 880, Germany and Leica SP5, Germany). The percentage of the positive area and cell number relative to DAPI was calculated by using ImageJ Software.
molecule,measurement,value
B1,aggrecan expression (IHC),decreased aggrecan expression
